B1: Plasmodium falciparum nucleosome assembly protein PfNapL, wild type (natural protein, UniProt Q8I608 1-347, looked up)
chain: MAANEGNQPIPPEEEKEISSLLESIKIDDDKMTDLTEEQKETLKKLKLYQKEYYDYESKFEYELFLLRQKYHDLYGPIYDKRREALVGNGEAKIGTPNLPEFWLRALRNNNTVSHVIEDHDEEILVYLNDIRCDYIKKNKEKKEGFILSFYFATNPFFSNSVLTKTYHMKCVDCDNEPVLLHTEATVIDWYDNKNILKKNVVKKQHNKNSREVKTVQQTVNRDSFFHFFTSHKVPNSNVIKQLSKHEVAQLEMIIEGDYEVALTIKERIIPYAVDYYLGIIIESESNSIVSDVDSSYSSSENNSNYNSYESNNSAYNDENSNVDTNEYDDNEEEEEGAKSNEDPLTS
B2: PfNapL H227A (natural protein)
chain: MAANEGNQPIPPEEEKEISSLLESIKIDDDKMTDLTEEQKETLKKLKLYQKEYYDYESKFEYELFLLRQKYHDLYGPIYDKRREALVGNGEAKIGTPNLPEFWLRALRNNNTVSHVIEDHDEEILVYLNDIRCDYIKKNKEKKEGFILSFYFATNPFFSNSVLTKTYHMKCVDCDNEPVLLHTEATVIDWYDNKNILKKNVVKKQHNKNSREVKTVQQTVNRDSFFAFFTSHKVPNSNVIKQLSKHEVAQLEMIIEGDYEVALTIKERIIPYAVDYYLGIIIESESNSIVSDVDSSYSSSENNSNYNSYESNNSAYNDENSNVDTNEYDDNEEEEEGAKSNEDPLTS
B3: PfNapL D192A (natural protein)
chain: MAANEGNQPIPPEEEKEISSLLESIKIDDDKMTDLTEEQKETLKKLKLYQKEYYDYESKFEYELFLLRQKYHDLYGPIYDKRREALVGNGEAKIGTPNLPEFWLRALRNNNTVSHVIEDHDEEILVYLNDIRCDYIKKNKEKKEGFILSFYFATNPFFSNSVLTKTYHMKCVDCDNEPVLLHTEATVIDWYANKNILKKNVVKKQHNKNSREVKTVQQTVNRDSFFHFFTSHKVPNSNVIKQLSKHEVAQLEMIIEGDYEVALTIKERIIPYAVDYYLGIIIESESNSIVSDVDSSYSSSENNSNYNSYESNNSAYNDENSNVDTNEYDDNEEEEEGAKSNEDPLTS
B4: PfNapL T230A (natural protein)
chain: MAANEGNQPIPPEEEKEISSLLESIKIDDDKMTDLTEEQKETLKKLKLYQKEYYDYESKFEYELFLLRQKYHDLYGPIYDKRREALVGNGEAKIGTPNLPEFWLRALRNNNTVSHVIEDHDEEILVYLNDIRCDYIKKNKEKKEGFILSFYFATNPFFSNSVLTKTYHMKCVDCDNEPVLLHTEATVIDWYDNKNILKKNVVKKQHNKNSREVKTVQQTVNRDSFFHFFASHKVPNSNVIKQLSKHEVAQLEMIIEGDYEVALTIKERIIPYAVDYYLGIIIESESNSIVSDVDSSYSSSENNSNYNSYESNNSAYNDENSNVDTNEYDDNEEEEEGAKSNEDPLTS
B5: PfNapL K266A (natural protein)
chain: MAANEGNQPIPPEEEKEISSLLESIKIDDDKMTDLTEEQKETLKKLKLYQKEYYDYESKFEYELFLLRQKYHDLYGPIYDKRREALVGNGEAKIGTPNLPEFWLRALRNNNTVSHVIEDHDEEILVYLNDIRCDYIKKNKEKKEGFILSFYFATNPFFSNSVLTKTYHMKCVDCDNEPVLLHTEATVIDWYDNKNILKKNVVKKQHNKNSREVKTVQQTVNRDSFFHFFTSHKVPNSNVIKQLSKHEVAQLEMIIEGDYEVALTIAERIIPYAVDYYLGIIIESESNSIVSDVDSSYSSSENNSNYNSYESNNSAYNDENSNVDTNEYDDNEEEEEGAKSNEDPLTS
B6: PfNapL E260A (natural protein)
chain: MAANEGNQPIPPEEEKEISSLLESIKIDDDKMTDLTEEQKETLKKLKLYQKEYYDYESKFEYELFLLRQKYHDLYGPIYDKRREALVGNGEAKIGTPNLPEFWLRALRNNNTVSHVIEDHDEEILVYLNDIRCDYIKKNKEKKEGFILSFYFATNPFFSNSVLTKTYHMKCVDCDNEPVLLHTEATVIDWYDNKNILKKNVVKKQHNKNSREVKTVQQTVNRDSFFHFFTSHKVPNSNVIKQLSKHEVAQLEMIIEGDYAVALTIKERIIPYAVDYYLGIIIESESNSIVSDVDSSYSSSENNSNYNSYESNNSAYNDENSNVDTNEYDDNEEEEEGAKSNEDPLTS
B7: PfNapL Y259A (natural protein)
chain: MAANEGNQPIPPEEEKEISSLLESIKIDDDKMTDLTEEQKETLKKLKLYQKEYYDYESKFEYELFLLRQKYHDLYGPIYDKRREALVGNGEAKIGTPNLPEFWLRALRNNNTVSHVIEDHDEEILVYLNDIRCDYIKKNKEKKEGFILSFYFATNPFFSNSVLTKTYHMKCVDCDNEPVLLHTEATVIDWYDNKNILKKNVVKKQHNKNSREVKTVQQTVNRDSFFHFFTSHKVPNSNVIKQLSKHEVAQLEMIIEGDAEVALTIKERIIPYAVDYYLGIIIESESNSIVSDVDSSYSSSENNSNYNSYESNNSAYNDENSNVDTNEYDDNEEEEEGAKSNEDPLTS

The first series deals with the molecule itself. Description: crystal structure.
For B1, the binding result was “binds”.

The target in another series is histone H4 (calf thymus) (calf, UniProt P62803 1-103). Description: ELISA.
For B1, the binding result is reported as “binds”. The same measure, in the same setting: then B2, with “binds”. The same measure, in the same setting: the result for B3 reads “binds”; that for B4, “binds”; that for B5, “binds”.

With B6, the binding result is “binds”. On the same count and under the same terms, then B7, with “binds”.

Source of the values: PMC2665062 (The Journal of Biological Chemistry, 2009).
